These results are taken from patent US20250027068.

The labels stand for the following.
B1: PRT-119 (protein)
chain: MRNATEAYAKETPKQITSVWTKGVTPPTPEQFRYNNEDVFHAPYVANQGWYDITKTFDGKDNLLCGAATAGNMLHWWFDQNKTEIEKYLSKHPEKQKIIFNNQELFDLKAAIDTKDSQTNSQLFNYFRDKAFPNLSARQLGVMPDLVLDMFINGYYLNVTKTQSTDVNRPYQDKDKRGGIFDAVFTRGDQTKLLTARHDLGNKSLNEISQLIKQELQEGKALALSHTYANVRISHVINLWGADFDAEGNLEAIYVTDSDSNASIGMKKYYVGVNSAGKVAISAKKIEGENIGAQVLGLFTLSSGKDIWQKLS
B2: PRT-118 (protein)
chain: MRNATEAYNKETPKTITSVWTKGVTPPTPEQFTKQNEDVFHAPYVANQGWYDITKTFNGKDNLLCGAATAGNMLHWWFDQNKTEIENYLKKHPEKQKIIFNNQELFDLKAAIDTKDSQTNSALFNYFRDKAFPNLSARQLGVMPDHVLDMFINGYYLNVNKTQSTDVNRPYDDKDKRGGIFDAVFTRGDQTTLLTARHDLKNKGLNEISTLIKQELTEGRALALSHTYANVSISHVINLWGADFNAEGNLEAIYVTDSDANASIGMKKYFVGKNASGKVAISAKKIEGDNIGAQVLGLFTLSSGKDIWQKLS
B3: PRT-123 (protein)
chain: MRNATEAYNKESPHTITSVWTKGVTPPTPEDFRYNNEDVLHAPYVANQGWYDITKTFDGKDNLLCGAATAGNMLHWWFDQNKEEIERYLKKHPEKQKIIFNNQELFDVKAAIDTKDSQTNSKLFNYFRDKAFPNLSARQLGVMPDLVLDMFINGYYLNLGKTQSTDVNRPYQDKDKRGGIFDAVFTRGDQTTLLTARHDLKNKGLNEISDLIKQELTEGKALALSHTYANVRINHVINLWGADFDAEGNLIAIYVTDSDANASIGMKKYFVGVNANGKVAISAKKIEGDNIGAQVLGLFTLSTGQDIWQKLS
B4: PRT-10 (protein)
chain: MANQEIRYSEVTPYTVTSVWTKGVTPPANFTQGEDVFHAPYVANQGWYDITKTFNGKDDLLCGAATAGNMLHWWFDQNKEQIERYLKEHPEKQKINFNGEQMFDVKEAIDTKDSQLDSELFEYFKEKAFPYLSTKHLGVFPDHVIDMFINGYRLSLTNHGPTPVKEGSKDPRGGIFDAVFTRGDQSKLLTSRHDFKEKTLKEISDLIKKELTEGKALALSHTYANVRINHVINLWGADFDSEGNLEAIYVTDSDSNASIGMKKYFVGVNSAGKVAISAKEIEDDNIGAQVLGLFTLSTGQDIWNQTN
B5: PRT-121 (protein)
chain: MRNATEAYNEDTPKQITSVWTKGVTPPTPEQFRKYNEDVLHAPYIANQGWYDITKTFNGKDDLLCGAATAGNMLHWWFDQNKTEIEAYLSKYPEKQKIIFNNQELFDLRAAIDTKDSQTNSALFNYFRDKAFPNLSARQLGVMPDLVLDMFINGYYLNVTKTQSTDVNRPYQTKDKRGGIFDAVFTRGDQTTLLTSRHDLKNKTLNEISDLIKQELTEGKALALSHTYANVSISHVINLWGADFNAEGNLEAIYVTDSDANASIGMKKYFVGVNAAGKVAISAKKIEGENIGAQVLGLFTLSTGKDIWEKLS
B6: PRT-113 (protein)
chain: MRNATEAYAKEVPHTITSVWTKGVTPPTPEQFTYYNEDVFHAPYLAHQGWYDITKTFNGKDNLLCGAATAGNMLHWWFDQNKTEIEAYLSKHPEKQKIIFNNQELFDLKAAIDTKDSQTNSQLFNYFKDKAFPNLSARQLGVMPDLVLDMFINGYYLNVFKTQSTDVNRPYQDKDKRGGIFDAVFTRGDQTKLLTARHDLKNKGLNDISDLIKQELTEGKALALSHTYANVSINHVINLWGADFNAEGNLEAIYVTDSDANASIGMKKYFVGINASGKVAISAKKIEGENIGAQVLGLFTLSSGKDIWQKLS
B7: PRT-114 (protein)
chain: MRNATEAYNEETPHQITSVWTKGVTPPTPEQFRYNNEDVIHAPYLANQGWYDITKTFNGKDNLLCGAATAGNMLHWWFDQNKTEIEAYLSKHPEKQKIIFNNQELFDLKAAIDTKDSQTNSQLFNYFREKAFPNLSARQLGVMPDLVLDMFINGYYLNVTKTQSTDVNRPYQDKDKRGGIFDAVFTRGDQTKLLTARHDLKNKTLNEISTLIKQELTEGRALALSHTYANVSISHVINLWGADFNAEGNLEAIYVTDSDANASIGMKKYFVGVNAAGHVAISAKKIEGENIGAQVLGLFTLSSGKDIWQKLS
B8: PRT-117 (protein)
chain: MRNATEAYAKEVPHTITSVWTKGVTPPTPEQFTYQNEDVFHAPYLANQGWYDITKTFNGKDNLLCGAATAGNMLHWWFDQNKEEIERYLSKHPEKQKIIFNNQELFDLKAAIDTKDSQTNSALFNYFRDKAFPNLSARQLGVMPDLVLDMFINGYYLNVFKTQSTDVNRPYQDKDKRGGIFDAVFTRGDQTTLLTARHDLKNKGLNDISDLIKQELTEGKALALSHTYANVSISHVINLWGADFNAEGNLEAIYVTDSDANASIGMKKYFVGVNTAGKVAISAKKIEGENIGAQVLGLFTLSSGKDIWEQLS
B9: PRT-122 (protein)
chain: MRNATEAYAKEVPKKITSVWTKGVTPLTPEQFIYQNEDVFHAPYLAHQGWYDITKTFNGKDNLLCGAATAGNMLHWWFDQNKEEIERYLSKHPEKQKIIFNNQELFDLKAAIDTKDSQTNSALFNYFRDKAFPNLSARQLGVMPDLVLDMFINGYYLNVTKTQSTDVNRPYQTKDKRGGIFDAVFTRGDQTKLLTERHDLKNKTLEEISQLIKQELTEGKALGLSHTYANVRISHVINLWGADFDAEGNLEAIYVTDSDSNASIGMKKYFVGVNASGKVAISAKKIEDDNIGAQVLGLFTLSSGKDIWEKLS
B10: PRT-116 (protein)
chain: MRNATEAYNKATPTTITSVWTKGVTPPTPEQFRYNNEDVFHAPYKAHQGWYDITKTFNGKDNLLCGAATAGNMLHWWFDQNKTEIEAYLSKHPEKQKIIFNNQELFDLKAAIDTKDSQTNSQLFNYFRDKAFPNLSARQLGVMPDLVLDMFINGYYLNVFKTQSTDVNRPYQDKDKRGGIFDAVFTRGDQTKLLTARHDLKDKGLNEISDLIKQELTEGKALALSHTYANVRISHVINLWGADFNAEGNLEAIYVTDSDANASIGMKKYFVGVNSSGHVAISAKKIEGENIGAQVLGLFTLSSGKDIWQKLS
B11: PRT-112 (protein)
chain: MRNATEAYAKEVPHKITSVWTKGVTPLTPEQFRYNGEDVIHAPYLANQGWYDITKTFDGKDNLLCGAATAGNMLHWWFDQNKTEIEAYLKKHPEKQKIIFNNQELFDLKAAIDTKDSQTNSALFNYFKDKAFPNLSARQLGVMPDHVLDMFINGYYLNVFKTQSTDVNRPYQDKDKRGGIFDAVFTRGDQTKLLTARHDLKNKGLNEISTLIKQELTEGKALALSHTYANVSISHVINLWGADFNAEGNLEAIYVTDSDANASIGMKKYFVGVNASGKVAISAKKIEGENIGAQVLGLFTLSSGKDIWQKLS
B12: PRT-120 (protein)
chain: MRNATEAYNEETPKQITSVWTKGVTPLTPEDFRYNNEDVFHAPYLANQGWYDITKTFNGKDNLLCGAATAGNMLHWWFDQNKEEIEAYLKKHPEKQKIIFNNQELFDLKAAIDTKDSQTNSQLFNYFKDKAFPNLSARQLGVMPDLVLDMFINGYYLNVNKTQSTDVNRPYQDKDKRGGIFDAVFTRGDQTKLLTERHDLKNKGLNDISTLIKQELTEGKALALSHTYANVSINHVINLWGADFDAEGNLEAIYVTDSDSNESIGMKKYFVGINAAGKVAISAKKIEDENIGAQVLGLFTLSSGKDIWQQLS
B13: PRT-115 (protein)
chain: MRNATEAYAKETPKTITSVWTKGVTPPTPEQFRYNGEDVIHAPYLAHQGWYDITKTFDGKDNLLCGAATAGNMLHWWFDQNKTEIERYLKKHPEKQKIIFNNQELFDLKAAIDTKDSQTNSALFNYFRDKAFPNLSARQLGVMPDLVLDMFINGYYLNVTKTQSTDVNRPYQTKDKRGGIFDAVFTRGDQTKLLTARHDLKNKTLNDISTLIKQELTEGKALALSHTYANVSISHVINLWGADFNAEGNLEAIYVTDSDSNASIGMKKYFVGVNAAGKVAISAKKIKGENIGAQVLGLFTLSSGKDIWQKLS

The target in the data set is pooled human IgG.
The protein B1 gave an Enzyme Activity Endpoint Assay (purified): Fab'2 of 15 ng/µL, an Enzyme Activity Endpoint Assay (purified): Fc of 96 ng/µL, an Enzyme Activity Endpoint Assay (purified): IgG of 0 ng/µL and an Enzyme Activity Endpoint Assay (purified): scIgG of 133 ng/µL.
The protein B2 displayed an Enzyme Activity Endpoint Assay (purified): Fab'2 of 23 ng/µL, an Enzyme Activity Endpoint Assay (purified): Fc of 85 ng/µL, an Enzyme Activity Endpoint Assay (purified): IgG of 0 ng/µL and an Enzyme Activity Endpoint Assay (purified): scIgG of 153 ng/µL.
The protein B3 displayed an Enzyme Activity Endpoint Assay (purified): Fab'2 of 468 ng/µL, an Enzyme Activity Endpoint Assay (purified): Fc of 187 ng/µL, an Enzyme Activity Endpoint Assay (purified): IgG of 0 ng/µL and an Enzyme Activity Endpoint Assay (purified): scIgG of 0 ng/µL.
The protein B4 displayed an Enzyme Activity Endpoint Assay: Fab′2 of 2 ng/µL, an Enzyme Activity Endpoint Assay: Fc of 56 ng/µL, an Enzyme Activity Endpoint Assay: IgG of 32 ng/µL and an Enzyme Activity Endpoint Assay: scIgG of 58 ng/µL.
As to B5, the Enzyme Activity Endpoint Assay (purified): Fab'2 is 447 ng/µL, the Enzyme Activity Endpoint Assay (purified): Fc came to 174 ng/µL, the Enzyme Activity Endpoint Assay (purified): IgG is 0 ng/µL and the Enzyme Activity Endpoint Assay (purified): scIgG turned out to be 0 ng/µL.
Turning to B6, the Enzyme Activity Endpoint Assay (purified): Fab'2 was found to be 656 ng/µL, the Enzyme Activity Endpoint Assay (purified): Fc is 189 ng/µL, the Enzyme Activity Endpoint Assay (purified): IgG came to 0 ng/µL and the Enzyme Activity Endpoint Assay (purified): scIgG stood at 0 ng/µL.
In turn, B7 registered an Enzyme Activity Endpoint Assay (purified): Fab'2 of 361 ng/µL, an Enzyme Activity Endpoint Assay (purified): Fc of 162 ng/µL, an Enzyme Activity Endpoint Assay (purified): IgG of 129 ng/µL and an Enzyme Activity Endpoint Assay (purified): scIgG of 111 ng/µL.
With B8, the Enzyme Activity Endpoint Assay (purified): Fab'2 stood at 663 ng/µL, the Enzyme Activity Endpoint Assay (purified): Fc came to 207 ng/µL, the Enzyme Activity Endpoint Assay (purified): IgG turned out to be 0 ng/µL and the Enzyme Activity Endpoint Assay (purified): scIgG was 0 ng/µL.
The protein B9 displayed an Enzyme Activity Endpoint Assay (purified): Fab'2 of 565 ng/µL, an Enzyme Activity Endpoint Assay (purified): Fc of 194 ng/µL, an Enzyme Activity Endpoint Assay (purified): IgG of 138 ng/µL and an Enzyme Activity Endpoint Assay (purified): scIgG of 0 ng/µL.
Taken in the same sequence, the figures for B10 were 510 ng/µL, 188 ng/µL, 0 ng/µL and 0 ng/µL.
The protein B11 had an Enzyme Activity Endpoint Assay (purified): Fab'2 of 435 ng/µL, an Enzyme Activity Endpoint Assay (purified): Fc of 152 ng/µL, an Enzyme Activity Endpoint Assay (purified): IgG of 15 ng/µL and an Enzyme Activity Endpoint Assay (purified): scIgG of 0 ng/µL.
In turn, B12 registered an Enzyme Activity Endpoint Assay (purified): Fab'2 of 92 ng/µL, an Enzyme Activity Endpoint Assay (purified): Fc of 113 ng/µL, an Enzyme Activity Endpoint Assay (purified): IgG of 28 ng/µL and an Enzyme Activity Endpoint Assay (purified): scIgG of 153 ng/µL.
On to B13, for which the Enzyme Activity Endpoint Assay (purified): Fab'2 is 124 ng/µL, the Enzyme Activity Endpoint Assay (purified): Fc was determined as 128 ng/µL, the Enzyme Activity Endpoint Assay (purified): IgG was determined as 24 ng/µL and the Enzyme Activity Endpoint Assay (purified): scIgG was 105 ng/µL.
